Assay results: the Immune Epitope Database (IEDB)
pKd: −log10 of the molar value.

How the values were obtained:
HLA-A*02:01 = assay: IEDB peptide-MHC binding, purified MHC/direct/fluorescence; filed as Kd, often an IC50 or EC50 that approximates it; ≥ and ≤ were set here for values at or beyond the usual limits of such assays
HLA-A*02:03 = assay: as above
HLA-A*02:11 = assay: as above
HLA-A*02:12 = assay: as above
HLA-A*02:16 = assay: as above; settings: source organism: Vibrio vulnificus CMCP6
HLA-A*02:19 = assay: as above
HLA-A*03:01 = assay: as above
HLA-A*24:03 = assay: as above
HLA-A*26:01 = assay: as above
HLA-B*07:02 = assay: as above
HLA-B*15:01 = assay: as above
HLA-B*18:01 = assay: as above
HLA-B*27:03 = assay: as above
HLA-B*35:01 = assay: as above
HLA-B*46:01 = assay: as above
HLA-B*57:01 [1] = assay: as above
HLA-B*15:17 = assay: as above
HLA-B*39:01 = assay: as above
HLA-B*51:01 = assay: as above
HLA-A*01:01 = assay: as above; settings: source organism: Francisella tularensis subsp. tularensis
HLA-A*11:01 = assay: as above; settings: source organism: Francisella tularensis subsp. tularensis
HLA-A*68:02 = assay: as above
HLA-A*69:01 = assay: as above
HLA-B*08:02 = assay: as above; settings: source organism: Francisella tularensis subsp. tularensis FSC033
HLA-B*08:03 = assay: as above; settings: source organism: Francisella tularensis subsp. tularensis FSC033
HLA-B*15:09 = assay: as above; settings: source organism: Francisella tularensis subsp. tularensis FSC033
HLA-B*58:01 [2] = assay: as above; settings: source organism: Francisella tularensis subsp. tularensis
HLA-A*02:06 = assay: IEDB peptide-MHC binding, purified MHC/competitive/fluorescence; filed as Kd, often an IC50 or EC50 that approximates it; ≥ and ≤ were set here for values at or beyond the usual limits of such assays; settings: source organism: Francisella tularensis subsp. tularensis FSC198
HLA-B*57:01 [3] = assay: IEDB peptide-MHC binding, purified MHC/competitive/radioactivity; filed as Kd, often an IC50 or EC50 that approximates it; ≥ and ≤ were set here for values at or beyond the usual limits of such assays
HLA-B*58:01 [4] = assay: as above; settings: source organism: Dengue virus 3 Martinique/1243/1999
[5] = source organism: Vibrio vulnificus CMCP6
[6] = source organism: Giardia lamblia ATCC 50803
[7] = source organism: Francisella tularensis subsp. tularensis
[8] = source organism: Campylobacter jejuni

Sequence: MPIAAAIGT
- pKd (HLA-A*02:01; [5]): ≤ 4.70
- pKd (HLA-A*02:03; [5]): ≤ 4.70
- pKd (HLA-A*02:11; [5]): ≤ 4.70
- pKd (HLA-A*02:12; [5]): ≤ 4.70
- pKd (HLA-A*02:16): ≤ 4.70
- pKd (HLA-A*02:19; [5]): ≤ 4.70
- pKd (HLA-A*03:01; [5]): ≤ 4.70
- pKd (HLA-A*24:03; [5]): ≤ 4.70
- pKd (HLA-A*26:01; [5]): ≤ 4.70
- pKd (HLA-B*07:02; [5]): 6.00
- pKd (HLA-B*15:01; [5]): ≤ 4.70
- pKd (HLA-B*18:01; [5]): ≤ 4.70
- pKd (HLA-B*27:03; [5]): ≤ 4.70
- pKd (HLA-B*35:01; [5]): 8.52
- pKd (HLA-B*46:01; [5]): ≤ 4.70
- pKd (HLA-B*57:01 [1]; [5]): ≤ 4.70

Sequence: PPPPLQHPI
- pKd (HLA-A*03:01; [6]): ≤ 4.70
- pKd (HLA-A*24:03; [6]): ≤ 4.70
- pKd (HLA-A*26:01; [6]): ≤ 4.70
- pKd (HLA-B*15:01; [6]): ≤ 4.70
- pKd (HLA-B*15:17; [6]): ≤ 4.70
- pKd (HLA-B*18:01; [6]): ≤ 4.70
- pKd (HLA-B*27:03; [6]): ≤ 4.70
- pKd (HLA-B*39:01; [6]): ≤ 4.70
- pKd (HLA-B*46:01; [6]): ≤ 4.70
- pKd (HLA-B*51:01; [6]): ≤ 5.30
- pKd (HLA-B*57:01 [1]; [6]): ≤ 4.70

Sequence: RYSNFAWYF
- pKd (HLA-A*01:01): ≤ 4.70
- pKd (HLA-A*02:01; [7]): ≤ 4.70
- pKd (HLA-A*11:01): ≤ 4.70
- pKd (HLA-A*24:03; [7]): 6.44
- pKd (HLA-A*68:02; [7]): ≤ 4.70
- pKd (HLA-A*69:01; [7]): ≤ 4.70
- pKd (HLA-B*07:02; [7]): ≤ 4.70
- pKd (HLA-B*08:02): ≤ 4.70
- pKd (HLA-B*08:03): ≤ 4.70
- pKd (HLA-B*15:01; [7]): ≤ 4.70
- pKd (HLA-B*15:09): ≤ 4.70
- pKd (HLA-B*15:17; [7]): ≤ 4.70
- pKd (HLA-B*18:01; [7]): ≤ 4.70
- pKd (HLA-B*57:01 [1]; [7]): ≤ 4.70
- pKd (HLA-B*58:01 [2]): ≤ 4.70
- pKd (HLA-A*02:06): ≤ 4.70

Sequence: SFWFFHPPY
- pKd (HLA-A*02:03; [8]): ≤ 4.70
- pKd (HLA-A*02:11; [8]): ≤ 4.70
- pKd (HLA-A*02:12; [8]): ≤ 4.70
- pKd (HLA-A*02:19; [8]): ≤ 4.70
- pKd (HLA-A*03:01; [8]): ≤ 4.70
- pKd (HLA-A*26:01; [8]): ≤ 4.70
- pKd (HLA-A*68:02; [8]): ≤ 4.70
- pKd (HLA-A*69:01; [8]): ≤ 4.70
- pKd (HLA-B*07:02; [8]): ≤ 4.70
- pKd (HLA-B*15:01; [8]): 5.30
- pKd (HLA-B*27:03; [8]): ≤ 4.70
- pKd (HLA-B*35:01; [8]): 6.45
- pKd (HLA-B*39:01; [8]): ≤ 4.70
- pKd (HLA-B*46:01; [8]): ≤ 4.70
- pKd (HLA-B*51:01; [8]): ≤ 4.70
- pKd (HLA-B*57:01 [1]; [8]): ≤ 4.70

Sequence: TASGINMCTL
- pKd (HLA-B*57:01 [3]; source organism: Dengue virus 3 Martinique/1243/1999): 5.25
- pKd (HLA-B*58:01 [4]): 6.99

Sequence: TTEDMLAVW
- pKd (HLA-B*57:01 [3]; source organism: Dengue virus 2 Jamaica/1409/1983): 7.52
